Laboratory results published in the nanobody polyreactivity screen of Harvey et al. (2022).

Experiment: yeast display, Sf9 membrane polyspecificity reagent, FACS + sequencing; frameworks hold sequencing errors
How it was run: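 Nanobodies came from a synthetic yeast display library in Saccharomyces cerevisiae BJ5465, induced with galactose for 36–48 hours and stained for 1 hour at 4 °C with 10% biotinylated, detergent-solubilized Sf9 membrane reagent. Cells were enriched on streptavidin microbeads and then FACS-sorted, with low and high (top ~1%) gates set on anti-HA fluorescence for expression and streptavidin fluorescence for reagent binding. Each polyreactivity label reflects the gate a clone came from. Genes were amplified by colony PCR, sequenced by MiSeq 2 × 250 and filtered by CDR length.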

Row | Sequence | polyreactivity (PSR sort gate)
1 | QVQLVESGGGLVQAGGSLRISCAASGFTFSLNGMGWYRQAPGKEREMVAAIRSGGSTNYADSVKGRFTISLDNAKYTVYIQMNSLKPEDTAVYYCATDIHSVHNNRDKHDYDYLGQGTQVTVSS | low polyreactivity
2 | QVQLVESGGGLVQAGGSLRLSCAASGRIFTHNAMGWYRQAHGKERELVAAISFSGVSTYYADSVKGRFTISRDNAKNTVYLQMNSLKPEDTAVYYCARRYWYPDAFYRYDYWGQGTQVTVSS | low polyreactivity
3 | QVQLVESGGGLVQAGGSLRLSCAASGRTFHGYAMGWYRQAPGKERELVARINWSDGRTYYADSVKGRFTISRDNAKNTVFLQMNSLKPEDTAVYYCAADKTVSYAPAWYYYWGQGTQVTVSS | low polyreactivity
4 | QVQLVESGGGLVQAGGSLRLSCAASGRIYPVYAMGWYRPAPGKERELVAAITSGVSTNYADSVKGRFTISRDNAKNTVYLQMNSLKPEDTAVYYCNKDYTTYPYYEDGYWGLGTQVTVSS | low polyreactivity
5 | QVQIVESGGGLVQAGGSLRLSCAASGRIFRRYAMGWYRQAPGKEREFVAAISYGGGATYYADSVKGRFTISRDNAKNTFYLQMNSLKPEDTAVYYCNAEVPKSLLLYYPWGYGYWGQGTQVTVSS | low polyreactivity
6 | QVQLVESGGGLVQAGGSLRLSCAASGRIFKFNAMGWYRPAPGKERELVAAITTGGGSTYYADSVKGRFTISRDNAKNTVYLQMNSLKPEDSAVYYCATDRRHVYSSRRYYYWVQGTQVTVSS | high polyreactivity
7 | QVQLVESGGGLVQEGGSLRLSCAASGLTFTGNAMGGYRQAPGKEREFVAAIRWSAGSTYYADSVKGRFTISRDNAKNTVYLQMNSLKPEDTAVYYCYAALIVSGHNPNDYWGQGTQVTGSS | low polyreactivity
8 | QVQLVESGGGLVQAGGSLRLSCAASGRIFGANAMGWYRQAPGKERELVAAISRTGGSTYYADSVKGRFTISRDNAKNTVYLQMNSLKPEDTAVYYCNAVYRYAHPMEYWGQGTQVTVSS | high polyreactivity
9 | QVQLVESRGGLVQAGGSLRLSCAASGRIFLRNAMVWYRQAPGKERELVASIDRSGGSTYYADSVKGRFTISRDNAKNTVYLQMNSLKPEDTAVYYCAAAYWYLYYYWGQGTQVTVAS | low polyreactivity
10 | EVQLVESGGGLVQPGGSLRLSCAASGYIYSRYRMGWYRQAPGKGREFVAAISGGSSTNYADSVKGRFTISRDNSKNTVYLQMNSLRAEDTAVYYCAAYQIDSDPRVYWGQGTQVTVSS | low polyreactivity
11 | QVQLVESGGGLVQAGGSLRLSCAASGMIFSDYSMGWYRQATGKERELVATITRSVRTSYADSVKGRFTISSDNAKNTVYLQMNSLKPEDTAVYYCNADVVGAVIAFDYWGQGTQVTVSS | low polyreactivity
12 | QVQLVESGGGLVQAGGSLRLSCAASGFTFPYYAMGWYRQSPGKERELVASISRRGGSTYYADSVKGRFTISRDNANNSVYLQMKSLKPEDTAVYYCAADGSRGRWTFDYWGQGTQVTVSS | high polyreactivity
13 | QVQLVESGGGLVQAGGSLRLSCAASGRTLYIYAMGWYREAPGKERELVAAITNGGTTYADSVKGRFTISRDNAKNTVYLQINSLKPEDTAVYYCNADLRVSRITQYEYWGQGTQVTVSS | low polyreactivity
14 | QVQLVESGGGLVQAGGSLRLSCAASGIIFASYAMGWYRPAPGKERELVATISRTGGSTRYADSVKGRFTISRDNAKNTVYLQMNSLKPEDTAVYYCAARNPAYDRRYGYWGQGTQVTVSS | high polyreactivity
15 | QVQLVESGGGLVQAGGSLRLSCAASGRTFGIYAMGWYRQAPGKERELVAAISSDASTSYADSVKGRFTISRDNAKNTVYLQMNSLKPEDTAVYYCAADPGPYYDWGYDYWGQGTQVTVSS | low polyreactivity
16 | QVQLVESGGGLVQAGVSLRLRCASSGFTFRPYAIGWYRQAPGKERELVAAITSGDSTNYADSVKGRFTISRDNEKNTVYLQMNSLKREDTAVYYCAADSTGRPSVSYDYWGQGTQVTVSS | low polyreactivity

Row | Sequence | polyreactivity (PSR sort gate)
17 | QVQLVESGGGLVQAGGSLRLSCAASGFIFYRYAMGWYRQAPGKERELVAAITSDGSTYYADSVKGRFTISRDNAKNTVYLQMNSLKPEDTAVYYCNAERWGNSVGNYWGQGTQVTVSS | high polyreactivity
18 | HVQLVESAGGLVQARGSLRLSCAASGSIFVTYAMGWYRQARGKERELVATITYSGGSTSYADSVKGRFTISRDNAKITVYLQMNSLKPDDTAVYFCAADLDSDFDYWGQGTQVTVSS | low polyreactivity
19 | QVQLVESGGALVQAGGSLRLSCAASGSIFYNAMGWYRQAPGKERELVAAISWRGTRTYYADSVKGRFTISRDNAKNTVYLQMNSLKPEDTAVYYCNKDYKYGVAYTRYDYWGQGTQVTVSS | high polyreactivity
20 | QVQLVESGGGLLQAGGSLRLSCAASVSIFEYYPMGWYRPAPGKERELVADITWSGGSTYYADSVKGRFTISRDNAKNTVDLQMNSLKPEDSAVYYCAKGYYVYGIFHRFGYYWGQGTQVTVSS | high polyreactivity
21 | QVQLVESGGGLVQAGGSLRLSCAASGITFSRNAMGWYRQAPGKERELVATITSGGSTNYADSVKGRFTISRDNAKNTVYLQMNSLKPEDTAVYYCNAVWNTFISGRSYDYWGQGTQVTVSS | low polyreactivity
22 | QVQLVESGGGLVQAGGSLRKSCAASGSTFVDYDMGWYRQAPGKERELVAGITTGGSTNYADSVKGRFPISRDNAKNTVYLQMNSLKPEDTAVYYCNADSYPILVPDYLYYWYEYWGQGTQVTVSS | low polyreactivity
23 | QVQLVESGGGLVQAGGSLRLSCAASGYIFGWYAMGWYRQAPGKERELVATIDWSGDSTYYADSVKGRFTISRDNAKNTVYLQMNSLKPEDTAVYYCAVGYSYYPSDEFDYWGQGTQVTVSS | low polyreactivity
24 | QVQLVESGGGLVQAGGSLRLSYAASGSIFGRYVMGWYRQAPGKERELVAAIKRSGGRTYYADSVKGRFTISRDNAKNTVYLQMNSLKPEDTAVYYCATYTGYSASKEVPYDYWGQGTQVTVSS | high polyreactivity
25 | QVQLVESGGGLVQAGGSLRLSCAASGFTFPYYAMGWSRQAPGKERELVAAITSSGTITYYADSVKGRFTISRDNAKNTVYLQMNSLKPEDTAVYYCAARFSSTRYLQWYYYWGQGTQVTVSS | high polyreactivity
26 | QVQLVESGGGLVQAGGSLRLSCAASGYTFGNYAMGWYRQAPGKERELVAGISWSGGSTYYADSVKGRFTISRDNAKNTVYLQMNSLKPEDTAVYYCATRVQGYHNGWYDYWGQGTQVTVSS | high polyreactivity
27 | QVQLVESGGGLVQAGGRLRLSCAASGHIFWGYAMGWSRQAPGKERELVAAITSGGNTNYADSVKGRFTISRDNAKNTVYLQMNSLKPEDTAVYYCAKRTRPWRDFDYWGQGTQVTVSS | low polyreactivity
28 | QVQLVESGGGLVQAGGSLRLSCAASGSTFTRNAMGWYRQAPGKERELVAVISSRGGRTYYADSVKGRFTISRDNAKNTVYLQMNSLKPEDTAVYYCAARTWVLYTWRSYYEYYYWGQGTQVTVSS | high polyreactivity
29 | QVQLVESGGGLVQAGGSLRLSCADSGYIFYPYTMGWYRQAPGKEMELDAAITWSGSTYYADSVKGRFTISRDNAKNTVYLQMNSLKPEDTAVYYCAADFDSYDSYTYLQYDYWGQGTQVTVSS | low polyreactivity
30 | QVQLVESGGGLVQAGGSLRLSCAASGRIFSTNAMGWYRQAPGTERELVAAISRRGASTYYADSVKGRFTISRDNAKNTVYLQMNSLKPEDTAVYYCAAVIGTGGRYNYWGQGTQVTVSS | high polyreactivity
31 | QVQLVESGGGLVQAGGSLRLSCAASGRIFGVNAMGWYRQAPGKERELVAGISISGGSTHYADSVKGRFTISRDNAKNTVYLQMNSLKPEDTAVYYCAKRFYKYVSYWHDYWGQGTQVTVSS | low polyreactivity
32 | QVKLVESGGGLVQAGGSLRLSCAASGSIFSRNTMGWSRQEPGKERELVAGISSSGSRTYYADSVKGRFTISRDNAKNTVYLQMNSLKPEDTAVYYCAKAWPDHWYSRYDYWGQGTQLTVSS | low polyreactivity
